Data on five molecules can be found in PMC2981644 (Journal of molecular biology, 2010).

B5: clathrin TD, N-terminal domain of the clathrin heavy chain (aa 1-363) (domain or fragment, UniProt P49951 1-363, looked up)
chain: MAQILPIRFQEHLQLQNLGINPANIGFSTLTMESDKFICIREKVGEQAQVVIIDMNDPSNPIRRPISADSAIMNPASKVIALKAGKTLQIFNIEMKSKMKAHTMTDDVTFWKWISLNTVALVTDNAVYHWSMEGESQPVKMFDRHSSLAGCQIINYRTDAKQKWLLLTGISAQQNRVVGAMQLYSVDRKVSQPIEGHAASFAQFKMEGNAEESTLFCFAVRGQAGGKLHIIEVGTPPTGNQPFPKKAVDVFFPPEAQNDFPVAMQISEKHDVVFLITKYGYIHLYDLETGTCIYMNRISGETIFVTAPHEATAGIIGVNRKGQVLSVCVEEENIIPYITNVLQNPDLALRMAVRNNLAGAEEL

No end group written: not given here. Alexa 488 = Alexa Fluor 488 dye

Assay [1] concerns the target B5. The assay can be described thus: AUC.
The target in assay [2] is T1, Clathrin heavy chain terminal domain (Rattus norvegicus, UniProt P11442).
T1 chain: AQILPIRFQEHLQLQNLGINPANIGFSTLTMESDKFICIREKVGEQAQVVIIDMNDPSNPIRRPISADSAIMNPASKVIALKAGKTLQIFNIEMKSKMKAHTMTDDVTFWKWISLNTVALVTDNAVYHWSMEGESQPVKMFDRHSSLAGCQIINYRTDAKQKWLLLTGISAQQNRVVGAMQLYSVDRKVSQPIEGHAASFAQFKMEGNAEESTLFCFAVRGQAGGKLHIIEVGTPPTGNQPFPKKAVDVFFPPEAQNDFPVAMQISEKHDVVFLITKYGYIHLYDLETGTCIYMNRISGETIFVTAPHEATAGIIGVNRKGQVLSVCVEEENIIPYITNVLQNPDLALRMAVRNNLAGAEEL
The assay can be described thus: NMR.

Assay [3] has as its target AP180 M5 (aa 623-680), wild type, middle segment of the AP180 C-terminal domain (UniProt Q05140-2 623-680). Kind of assay: NMR titration.
The target of assay [4] is AP180 M5 site 2 (single-site AP180 M5, residues 639-642 mutated to alanines; binding site 1 mutated), Q05140. The assay can be described thus: NMR titration.
The target of assay [5] is AP180 M5 site 1 (single-site AP180 M5, residues 667-668 mutated to alanines; binding site 2 mutated), Q05140. Kind of assay: NMR titration.

B1: AP180 M5 site 2 (residues 639-642 to alanines), fluorescently labelled for AUC (domain or fragment)
chain: {Alexa 488}-ASTASPAK(Alexa 488)AESSGVIDAAAAAFGSGASETQPAPQAVSSSSASADLLAGFGGSFMAPST
B1: in assay [1], the Kd turned out to be 253 ± 8 µM.

B2: AP180 M5 fragment, binding site 1 (peptide)
chain: TAVDAFAAPSPASTASPAKA
B2 showed a Kd in assay [2] of 160 µM.

B3: Alexa488-AP180 M5 (aa 623-680), wild type, fluorescently labelled (domain or fragment)
chain: {Alexa 488}-ASTASPAK(Alexa 488)AESSGVIDLFGDAFGSGASETQPAPQAVSSSSASADLLAGFGGSFMAPST
With B3, binding in assay [1] was characterised by a dissociation constant (Kd) of 173 ± 11 µM.

B4: AP180 M5 site 1 (residues 667-668 to alanines), fluorescently labelled for AUC (domain or fragment)
chain: {Alexa 488}-ASTASPAK(Alexa 488)AESSGVIDLFGDAFGSGASETQPAPQAVSSSSASADAAAGFGGSFMAPST
On to B4, for which the dissociation constant Kd in assay [1] is 251 ± 3 µM.
Regarding B5, in assay [3], the “KD of binding site 1” value was 160 ± 23 µM. Also, the “KD of binding site 2” value in assay [3] stood at 224 ± 48 µM. Also, the dissociation constant (Kd) amounted to 246 µM in assay [4] and 168 µM in assay [5].
